The text below walks through data of the supplement of paper PMC9942255.

The test system of the data set is Bacillus subtilis DB104 (SP-AmyQ fusion secretion). Kind of data set: AmyQ secretion efficiency, weighted average sort bin (1 = best secretion, 10 = worst) (bin number (weighted average, 1-10)); higher = lower secretion efficiency. The method in brief: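 The secretion score gives the average bin number weighted by read frequency and normalised to beads per bin, with low-abundance sequences excluded. Bins were 10 equally populated green/red fluorescence ratio fractions of occupied ~65 nL alginate beads, sorted by large-particle flow cytometry. The beads held fluorescein-starch and about 0.3 cells each of an amyE-integrated B. subtilis DB104 library fusing designed signal peptides to mature AmyQ, and they were grown about 13 h at room temperature and stained with nile red before sorting and Illumina sequencing.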

Where “and” joins values, the source holds several entries; their conditions need not be identical. Equal entries are not always repeated.

MRIFKKAVFVIMISFLIATVNVNTAHAEDD returned an AmyQ secretion efficiency of 3.86. Sequence MRIFKKAVFVIMISFLIATVNVNTAHAKKR registered an AmyQ secretion efficiency of 2.09.

MRIFKKAVFVIMISFLIATVNVNTAHGAID: the AmyQ secretion efficiency is 5.43. In turn, MRIFKKAVFVIMISFLIATVNVNTAHIAID yielded an AmyQ secretion efficiency of 6.89. With MRIFKKAVFVIMISFLIATVNVNTCHAAID, the AmyQ secretion efficiency stood at 3.94. In the case of MRIFKKTYSQQGQTFLIATVNVNTAHAAID, the AmyQ secretion efficiency is 8.8. Regarding MRIKQCVICLSLLVFGTTAAHAEET, the AmyQ secretion efficiency was determined as 2.98. In turn, MRKAVFVIMISFLIATVNVNTAHAAID yielded an AmyQ secretion efficiency of 3.36. The sequence MRKAVLLSLIMLIAGFLISFSFQM showed an AmyQ secretion efficiency of 7.21.

As to MRKFLKSNFRFLLAAALGISLLASSNFIKASND, the AmyQ secretion efficiency was 4.13. As to MRKFLLAAALGISLLASSNFIKASND, the AmyQ secretion efficiency was 4.88.

On to MRKIIGWILLLCIIPLFAFTVIASGKEV, for which the AmyQ secretion efficiency is 7.63.

As for MRKILALFVLSLGLLSFMVTPVSAASK, the AmyQ secretion efficiency is 1.58.

On to MRKILLSSALSLGMLVSAAPVLATSS, for which the AmyQ secretion efficiency stood at 1.66. As to MRKKCKVCLWILVLLLSCLSGKSAYAATS, the AmyQ secretion efficiency worked out at 2.26. Sequence MRKKCSKCKWSTTSLLSCLSGKSAYAATS had an AmyQ secretion efficiency of 7.94.

MRKKCSSMSFTSVCLWILVLLLSCLSGKSAYAATS gave an AmyQ secretion efficiency of 3. For MRKKCSTCQWRLVLLLSCLSGKSAYAATS, the AmyQ secretion efficiency came out at 5.76. Sequence MRKKCSTCRWILVLLLSCLSGKSAYAATS yielded an AmyQ secretion efficiency of 5.49. Turning to MRKKCSVCKKRRKRLLSCLSGKSAYAATS, the AmyQ secretion efficiency came out at 7.64. Consider MRKKCSVCKRILVLLLSCLSGKSAYAATS, for which the AmyQ secretion efficiency was found to be 7.44. Sequence MRKKCSVCLWILVLLLSCDSGKSAYAATS registered an AmyQ secretion efficiency of 3.15. Under MRKKCSVCLWILVLLLSCKKRKKRAYAATS stands 6.88; under MRKKCSVCLWILVLLLSCKRGKSAYAATS, 6.83. For MRKKCSVCRRKKVLLLSCLSGKSAYAATS, the AmyQ secretion efficiency stood at 7.48. On to MRKKHKTISLLIIFLLASAVLAKPIEAHTV, for which the AmyQ secretion efficiency was 2.55. In turn, MRKKHQTISLLIIFLLASAVLAKPIEAHTV gave an AmyQ secretion efficiency of 2.69. In the case of MRKKIKVLTMCFLGLILFVPTALADNS, the AmyQ secretion efficiency is 1.88. On to MRKKKLWISLLFALTLIFTMAFSNMSAQAAGK, for which the AmyQ secretion efficiency worked out at 2.97. For MRKKKRHSRLIVLLFFSFFGVQPIHAKKQ the value was 7.01; for MRKKKRKLLLATSALTFSLSLVLPLDGHAKAQEV, 2.13. The sequence MRKKKRRVLLLLVTGLFMSLFAVTATASAQTG gave an AmyQ secretion efficiency of 1.06. For MRKKKWMVGLLAGCLAAGGFSYNAFATEN the value was 3.58.

The sequence MRKKKWRVGLLAGCLAAGGFSYNAFATEN returned an AmyQ secretion efficiency of 5.68. Turning to MRKKLKWLSFKRRRKRLLFLFKYQFSNNDS, the AmyQ secretion efficiency was found to be 8.72. On to MRKKLKWLSFLLGFIILLFLFDEEEDDFSNNDS, for which the AmyQ secretion efficiency came out at 5.38. Sequence MRKKLKWLSFLLGFIILLFLFFFIALIVLAKYQFSNNDS yielded an AmyQ secretion efficiency of 6.41.

Turning to MRKKLKWLSFLLGFIILLFLFKKKFSNNDS, the AmyQ secretion efficiency was 7.77. The sequence MRKKLKWLSFLLGFIILLFLFKKRKKRFSNNDS had an AmyQ secretion efficiency of 7.3. MRKKLKWLSFLLGFIILLFLFKYQASNNDS: the AmyQ secretion efficiency was 7.34.

With MRKKLKWLSFLLGFIILLFLFKYQFSFNDS, the AmyQ secretion efficiency amounted to 6.3. Under MRKKLKWLSFLLGFIILLFLFKYQFSNNKR stands 5.8; under MRKKLKWLSFLLGFIILLFLFKYQFSPNDS, 6.63. The sequence MRKKLKWLSFLLGFIILLFLFKYQFSQNDS yielded an AmyQ secretion efficiency of 8.41. For MRKKLKWLSFLLGFIILLFLFKYQFSSNDS the value was 5.44; for MRKKLKWLSFLLGFIILLFLFKYQGSNNDS, 5.93; for MRKKLKWLSFLLGFIILLFLFKYQPSNNDS, 7.17. MRKKLKWLSFLLGFIILLFLFKYQQSNNDS yielded an AmyQ secretion efficiency of 6.25.

On to MRKKLKWLSFLLGFIILLFLFKYQRSNNDS, for which the AmyQ secretion efficiency was 7.7. The sequence MRKKLKWLSFLLGFIILLFLFKYQSSNNDS gave an AmyQ secretion efficiency of 6.36.

Regarding MRKKLKWLSFLLGFIILLFLFTFGFSNNDS, the AmyQ secretion efficiency was 5.5. The sequence MRKKLKWLSFLLGFIILLFLFTLTILKYQFSNNDS had an AmyQ secretion efficiency of 7.28.

On to MRKKLKWLSFRRRRIILLFLFKYQFSNNDS, for which the AmyQ secretion efficiency came out at 7.16. As for MRKKLKWLSTGTGGTYTQFLFKYQFSNNDS, the AmyQ secretion efficiency was found to be 7.11.

In turn, MRKKLKWLSTLLGFIILLFLFKYQFSNNDS displayed an AmyQ secretion efficiency of 5.35. Sequence MRKKRAVLLSLIMLIAGFLISFSFQM displayed an AmyQ secretion efficiency of 7.34.

MRKKRGYRCGMAASLTLGSLLPAGYASAKED registered an AmyQ secretion efficiency of 6.63.

In turn, MRKKRLLAGALTATVLFGTCAVDVPGIISPKTAEAASQ showed an AmyQ secretion efficiency of 1.23. For the sequence MRKKRLLTIYIMLLGLIAWFPGAAQAEEK, the AmyQ secretion efficiency was found to be 3.47. Under MRKKRMIMMVITCVMAASLTLGSLLPAGYASAKED stands 3.07; under MRKKRNVITCVMAASLTLGSLLPAGYASAKED, 3.03. MRKKRQVCLWILVLLLSCLSGKSAYAATS yielded an AmyQ secretion efficiency of 2.64. The sequence MRKKRRRSLITLGLASVIGTSSFLIPFTSKTASAETL had an AmyQ secretion efficiency of 1.75. MRKKRRRVITCVMAASLTLGSLLPAGYATAKED: the AmyQ secretion efficiency is 3.9. Under MRKKRTIFAFLTGLMMFGTITAASASPD stands 4.56; under MRKKRTSNFNMIVITCVMAASLTLGSLLPAGYATAKED, 3.08. As to MRKKRTVITCVMAASLTLGSLLPAGYATAKED, the AmyQ secretion efficiency was 6.07. The sequence MRKKRVILAAFILVGSTLGAFSFSSDASAKHV yielded an AmyQ secretion efficiency of 2.62.

Consider MRKKRVITCVMAASLTLGPAGYASAKED, for which the AmyQ secretion efficiency came to 3.6. In the case of MRKKRVITCVMAASLTLGPAGYATAKED, the AmyQ secretion efficiency worked out at 2.6. MRKKRVITCVMAASLTLGSLLAAAIASAKED: the AmyQ secretion efficiency turned out to be 5.2. The sequence MRKKRVITCVMAASLTLGSLLAAAIATAKED showed an AmyQ secretion efficiency of 3.82. MRKKRVITCVMAASLTLGSLLPAGYASAADD displayed an AmyQ secretion efficiency of 5.09. The sequence MRKKRVITCVMAASLTLGSLLPAGYASAAPS registered an AmyQ secretion efficiency of 2.5. Turning to MRKKRVITCVMAASLTLGSLLPAGYASAASD, the AmyQ secretion efficiency amounted to 1.13. MRKKRVITCVMAASLTLGSLLPAGYASFKED gave an AmyQ secretion efficiency of 3.82.

In turn, MRKKRVITCVMAASLTLGSLLPAGYASGKED came in with an AmyQ secretion efficiency of 3.86. Take MRKKRVITCVMAASLTLGSLLPAGYASTKED: the AmyQ secretion efficiency turned out to be 2.82. Take MRKKRVITCVMAASLTLGSLLPAGYATAAPR: the AmyQ secretion efficiency worked out at 1.69.

On to MRKKRVITCVMAASLTLGSLLPAGYATAATP, for which the AmyQ secretion efficiency turned out to be 2.04.

As for MRKKRVITCVMAASLTLGSLLPAGYATADDE, the AmyQ secretion efficiency came to 4.08. The sequence MRKKRVITCVMAASLTLGSLLPAGYATAKKR had an AmyQ secretion efficiency of 2.88.

As to MRKKRVITCVMAASLTLGSLLPAGYCSAKED, the AmyQ secretion efficiency came to 3.36. The sequence MRKKRVITCVMAASLTLGSLLPAGYCTAKED returned an AmyQ secretion efficiency of 3.9.

For MRKKRVITCVMAASLTLGSLLPAGYLSAKED, the AmyQ secretion efficiency is 4.34. For MRKKRVITCVMAASLTLGSLLPAGYMSAKED the value was 2.67. Regarding MRKKRVITCVMAASLTLGSLLPAGYSSAKED, the AmyQ secretion efficiency came to 3.75.

For the sequence MRKKRVITCVMAASLTLGSLLPAGYVSAKED, the AmyQ secretion efficiency was found to be 3.76. Under MRKKRVITCVMAASLTLGSLLPAGYVTAKED stands 2.51.

In turn, MRKKRVITCVMAASLTLGSLLRKRKKRASAKED displayed an AmyQ secretion efficiency of 6.48. Under MRKKRVITCVMAASLTLGSLLSPAGYASAKED stands 3.22; under MRKKRVITCVMAASLTLGSLLTAVTASAKED, 3.16.

Consider MRKKRVITCVMAASPAGYASAKED, for which the AmyQ secretion efficiency is 7.41. Sequence MRKKRVITCVMAASPAGYATAKED showed an AmyQ secretion efficiency of 7.65. In the case of MRKKRVKRCKKKRSLTLGSLLPAGYASAKED, the AmyQ secretion efficiency was 7.22. MRKKRVKRCVMAASLTLGSLLPAGYASAKED returned an AmyQ secretion efficiency of 3.34. Consider MRKKRVRKCKKAASLTLGSLLPAGYASAKED, for which the AmyQ secretion efficiency stood at 7.62. Regarding MRKKRYGKCRQGSSLTLGSLLPAGYATAKED, the AmyQ secretion efficiency was determined as 8.17. For MRKKTKNRLISSQKSTVVISSLLFPGAAGASSK, the AmyQ secretion efficiency came out at 8.12. The sequence MRKKTKNRLISSVLFMVVIMILLFSPGAAGASSK gave an AmyQ secretion efficiency of 1.52. Under MRKKTKNRLISSVLSTVVISSLLFAPGAAGASSK stands 2.22. Take MRKKTKNRLISSVLSTVVISSLLFKRKAGASSK: the AmyQ secretion efficiency came to 7.11. MRKKTKNRLISSVLSTVVISSLLFPGAAFAGASSK: the AmyQ secretion efficiency is 1.5.

MRKKTKNRLISSVLSTVVISSLLFPGAAGARKK displayed an AmyQ secretion efficiency of 2.52.

MRKKTKNRLISSVLSTVVISSLLFPGAAGASEE returned an AmyQ secretion efficiency of 2.7. For MRKKTKNRLISSVLSTVVISSLLFPGAAGASSD the value was 2.47; for MRKKTKNRLISSVLSTVVISSLLFPGAAGASSK, 1.59 and 2.27 and 1.9.
